Measurements from PMC12493188.

How the values were obtained:
[1] = biological target: reaction centre-light harvesting 1 (RC-LH1) core complex, monomer, from Rba. sphaeroides strain DX13 (Rhodobacter sphaeroides 2.4.1) (UniProt P0C0Y8)
[2] = biological target: reaction centre-light harvesting 1 (RC-LH1) core complex, monomer, from Rba. sphaeroides strain DX13 (Rhodobacter sphaeroides 2.4.1) (UniProt P0C0Y8); remark: listed apart in the source

Substance	cyt c oxidation rate by RC-LH1 against NaCl (series up to 500 mM; observed optimum 50 mM): activity lost at 500 mM NaCl (% of activity lost) [1]	K M of redox carrier oxidation by RC-LH1, steady-state turnover (0.125 µM RC-LH1, 50 µM UQ-2, 50 mM Tris-HCl pH 7.5, 100 mM NaCl, 0.03% β-DDM, 25°C) [2]	V max of redox carrier oxidation by RC-LH1, steady-state turnover (0.125 µM RC-LH1, 50 µM UQ-2, 50 mM Tris-HCl pH 7.5, 100 mM NaCl, 0.03% β-DDM, 25°C) [2]	cyt c 2 oxidation rate by RC-LH1 against NaCl (series up to 500 mM; optimum 100 mM in Table 1): activity left at 500 mM NaCl, percent of the maximum (% of maximum activity) [1]	cyt c 6 oxidation rate by RC-LH1 against NaCl (0-800 mM): optimum [NaCl] [2]	iso c 2 oxidation rate by RC-LH1 against NaCl (series up to 500 mM; optimum 50 mM in Table 1): activity left at 500 mM NaCl, percent of the maximum (% of maximum activity) [1]	Pc oxidation rate by RC-LH1 against NaCl (0-800 mM): optimum [NaCl] [2]
cytochrome c (cyt c) from horse heart mitochondria (from UniProt P00004 1-105) (natural protein)	90	–	–	–	–	–	–
cytochrome c 2 (cyt c 2) of Rba. sphaeroides (from UniProt P0C0X8 1-124) (natural protein)	–	6.8 µM	293 e^−/RC/s	40	–	–	–
isocytochrome c 2 (iso c 2) of Rba. sphaeroides (natural protein)	–	5.88 µM	230 e^−/RC/s	–	–	20	–

More lines, now with the values ahead:

cyt c oxidation rate by RC-LH1 against NaCl (series up to 500 mM; observed optimum 50 mM): activity lost at 500 mM NaCl (% of activity lost) [1]	K M of redox carrier oxidation by RC-LH1, steady-state turnover (0.125 µM RC-LH1, 50 µM UQ-2, 50 mM Tris-HCl pH 7.5, 100 mM NaCl, 0.03% β-DDM, 25°C) [2]	V max of redox carrier oxidation by RC-LH1, steady-state turnover (0.125 µM RC-LH1, 50 µM UQ-2, 50 mM Tris-HCl pH 7.5, 100 mM NaCl, 0.03% β-DDM, 25°C) [2]	cyt c 2 oxidation rate by RC-LH1 against NaCl (series up to 500 mM; optimum 100 mM in Table 1): activity left at 500 mM NaCl, percent of the maximum (% of maximum activity) [1]	cyt c 6 oxidation rate by RC-LH1 against NaCl (0-800 mM): optimum [NaCl] [2]	iso c 2 oxidation rate by RC-LH1 against NaCl (series up to 500 mM; optimum 50 mM in Table 1): activity left at 500 mM NaCl, percent of the maximum (% of maximum activity) [1]	Pc oxidation rate by RC-LH1 against NaCl (0-800 mM): optimum [NaCl] [2]	Substance
–	66.3 µM	37.8 e^−/RC/s	–	700 mM	–	–	cytochrome c 6 (cyt c 6) of Synechocystis sp. PCC 6803 (from UniProt P46445 36-120) (natural protein)
–	209 µM	7.92 e^−/RC/s	–	–	–	700 mM	plastocyanin (Pc) of Synechocystis sp. PCC 6803, C-terminally StrepII-tagged (from UniProt P21697 29-126) (natural protein)
